Measured values from US20230331817A1 (The Regents of the University of California, priority 2020, published 2023).
Like-named read-outs stand apart in the source and are kept apart here.

Assays:
[1] = tested on: mouse tail bleeding model; conditions: cited from earlier work
[2] = in vivo; cited from earlier work
[3] = human, in vivo; cited from earlier work
[4] = target: T1, FXa (Homo sapiens, UniProt P00742); assay: Protease inhibition assay, factor Xa; type: biochemical; conditions: 1 nM FXa
T1 construct: FXa, factor Xa
T1 sequence (P00742 235-488 limits assumed): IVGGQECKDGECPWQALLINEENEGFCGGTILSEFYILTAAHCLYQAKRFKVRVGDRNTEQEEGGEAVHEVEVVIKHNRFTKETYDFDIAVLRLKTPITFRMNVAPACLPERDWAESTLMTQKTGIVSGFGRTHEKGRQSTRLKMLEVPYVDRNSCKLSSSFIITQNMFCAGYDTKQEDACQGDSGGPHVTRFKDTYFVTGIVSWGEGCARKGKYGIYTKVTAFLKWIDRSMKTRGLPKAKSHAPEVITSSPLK
T1 sequence (P00742 41-179 limits assumed): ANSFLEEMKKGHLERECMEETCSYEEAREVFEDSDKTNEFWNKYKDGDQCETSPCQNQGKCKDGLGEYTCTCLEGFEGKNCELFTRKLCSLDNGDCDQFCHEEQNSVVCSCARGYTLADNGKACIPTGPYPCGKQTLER
Experimental: FIG. 2. Data from Equilibrium inhibition constants (Ki) of KD1Y11T/R15KL17R-KT with plasmin, FXIa, kallikrein (KLK), FVIIa/sTF and FXa. Percent activity of 3 nM human plasmin remaining in the presence of various concentrations (0.05 to 19.2 nM) of KD1Y11T/R15KL17R-KT (●) or BPTI (◯). And percent activity of 1 nM human FXIa (▴), 1 nM human kallikrein (●), 20 nM human FVIIa/sTF (Δ) and 1 nM FXa (♦) remaining in the presence of various concentrations (1 μM to 30 μM) of KD1Y11T/R15KL17R-KT.
Ki values for each inhibitor were calculated using the tight binding equations.

[5] = target: T2, FVIIa/sTF (Homo sapiens, UniProt P08709); assay: Protease inhibition assay, FVIIa/soluble tissue factor; type: biochemical; conditions: 20 nM FVIIa/sTF; read-out: Ki for Factor VIIa/soluble tissue factor
T2 construct: human factor VIIa (FVIIa) was prepared as described previously (34)
T2 sequence (P08709 213-466 limits assumed): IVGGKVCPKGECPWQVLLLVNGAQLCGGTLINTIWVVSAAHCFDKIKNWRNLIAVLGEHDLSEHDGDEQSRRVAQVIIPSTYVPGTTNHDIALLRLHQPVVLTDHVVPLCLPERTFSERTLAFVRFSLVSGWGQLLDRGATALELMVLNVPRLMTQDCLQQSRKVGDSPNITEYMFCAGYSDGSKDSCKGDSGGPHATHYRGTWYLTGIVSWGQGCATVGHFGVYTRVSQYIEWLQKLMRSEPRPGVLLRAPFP
T2 sequence (P08709 61-212 limits assumed): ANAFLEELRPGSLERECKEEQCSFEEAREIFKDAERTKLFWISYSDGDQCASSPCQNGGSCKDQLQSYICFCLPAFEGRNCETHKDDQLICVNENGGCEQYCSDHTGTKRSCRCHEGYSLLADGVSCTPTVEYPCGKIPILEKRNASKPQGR
T2 sequence (P13726 33-251 partner limits assumed): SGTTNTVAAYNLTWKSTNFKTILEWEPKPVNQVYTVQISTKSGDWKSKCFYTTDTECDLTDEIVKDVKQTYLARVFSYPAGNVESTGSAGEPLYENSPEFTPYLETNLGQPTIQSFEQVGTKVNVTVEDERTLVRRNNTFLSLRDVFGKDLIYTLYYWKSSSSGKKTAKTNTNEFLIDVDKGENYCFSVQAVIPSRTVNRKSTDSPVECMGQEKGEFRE
Experimental: (§1) All reactions were carried out in TBS, pH 7.5 (50 mM Tris-HCL, pH 7.5, containing 100 mM NaCl), containing 0.1 mg bovine serum albumin/ml (TBS/BSA) and 2 mM Ca2+(TBS/BSA/Ca2+, pH 7.5). […] The inhibition constant, K* was determined using the nonlinear regression data analysis program Grafit.
(§2) Ki values were obtained by correcting for the effect of substrate according to Beith (38), using equation 2, where (S) is substrate concentration and KM is specific for each enzyme.

[6] = tested on: HUVEC; type: cell-based, human
Experimental: (§3) Resazurin reduction assay (Fisher Scientific) was used to evaluate the potential cytotoxicity of antifibrinolytic agents toward primary human endothelial cells and skin fibroblasts. Phosphate buffer that was used to dissolve the samples was included as negative control. The assay is based on reduction of the non-fluorescent dye resazurin, to the highly fluorescent resorufin by viable cells. […] Briefly, cells in 96-well cell culture plates were treated with different concentrations of antifibrinolytic compounds (as described above). After 24 hours resazurin reagent was added to each well and the plates were incubated at 37° C. for 4 hours. Fluorescence was measured by the FLUOstar Omega Microplate Reader (BMG Labtech) using an excitation wavelength of 544 nm and an emission wavelength of 590 nm. Each assay was done in duplicate, with three replicates each. The viability was evaluated based on comparison with untreated cells.

[7] = tested on: HUVEC; assay: Caspase 3/7 assay, HUVEC; type: cell-based, human; conditions: 24 hours; 30 μM KD1TM, 30 μM BPTI, 60 mM EACA, 30 mM TXA
Experimental: The influence of antifibrinolytic agents on apoptosis in cells was detected using the Caspase-Glo 3/7 Assay kit (Promega). Caspase 3 and 7 are activated in cells that undergo apoptosis. The assay provides a luminogenic substrate for caspase 3 and 7. Enzymatic activity leads to luminescence, which is proportional to the amount of caspase activity present. Cells were seeded in 96-well plates and treated with antifibrinolytic agents or phosphate buffer (solvent control). Taxol was included as positive control. After 24 hours of treatment, caspase reagent was added to each well, mixed and incubated for 1 hour at room temperature. Luminescence was measured using the FLUOstar Omega Microplate Reader (BMG Labtech).

[8] = tested on: primary human dermal skin fibroblasts; assay: Resazurin reduction (alamarBlue) viability assay, skin fibroblasts; type: cell-based
Experimental: as §3

[9] = target: T3, human plasmin (Homo sapiens, UniProt P00747); assay: Protease inhibition assay, plasmin (S-2251 amidolytic activity); type: biochemical; conditions: 3 nM plasmin; 1 hour at room temperature; tight-binding equation
T3 construct: purchased Hematologic Technologies Inc (Essex Junction, VT)
T3 sequence (P00747 97-580 limits assumed): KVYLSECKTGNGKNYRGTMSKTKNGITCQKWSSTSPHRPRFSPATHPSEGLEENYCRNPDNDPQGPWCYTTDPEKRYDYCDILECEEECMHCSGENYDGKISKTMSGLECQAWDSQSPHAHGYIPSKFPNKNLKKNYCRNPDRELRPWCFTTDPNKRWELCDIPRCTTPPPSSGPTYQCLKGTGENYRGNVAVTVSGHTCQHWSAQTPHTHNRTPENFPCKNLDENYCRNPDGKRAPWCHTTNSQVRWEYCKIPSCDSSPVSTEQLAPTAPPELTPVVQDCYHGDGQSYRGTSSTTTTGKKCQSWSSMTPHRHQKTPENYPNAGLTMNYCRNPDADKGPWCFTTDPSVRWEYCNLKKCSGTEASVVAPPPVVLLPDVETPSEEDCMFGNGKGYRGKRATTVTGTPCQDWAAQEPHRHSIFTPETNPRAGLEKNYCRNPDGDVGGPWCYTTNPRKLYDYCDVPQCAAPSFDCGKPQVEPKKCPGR
T3 sequence (P00747 581-810 limits assumed): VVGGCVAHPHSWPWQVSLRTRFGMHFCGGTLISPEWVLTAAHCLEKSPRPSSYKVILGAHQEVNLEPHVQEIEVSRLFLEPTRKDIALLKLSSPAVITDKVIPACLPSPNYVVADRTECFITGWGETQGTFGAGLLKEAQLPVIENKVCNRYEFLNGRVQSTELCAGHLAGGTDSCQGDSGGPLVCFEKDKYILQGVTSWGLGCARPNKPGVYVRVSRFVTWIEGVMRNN
Experimental: as §1, §2
Reactions were carried out in TBS/BSA and 2 mM calcium. […] Synthetic substrate for plasmin was then added to a final concentration of 1 KM, and residual amidolytic activity was measured in a kinetic microplate reader (Molecular Devices).

[10] = tested on: primary human dermal skin fibroblasts; conditions: 24 hours; 30 μM KD1TM, 30 μM BPTI, 60 mM EACA, 30 mM TXA
From the text: (§4) Primary human pooled umbilical vein endothelial cells (HUVEC) were obtained from ATCC. The cells were maintained in Vascular Cell Basal Medium (ATCC), supplemented with the Endothelial Cell Growth Kit-BBE (ATCC) and Penicillin-Streptomycin-Amphotericin B (ATCC). Primary human dermal skin fibroblasts were obtained from LONZA and maintained in Fibroblast Basal Medium (FBMTM, LONZA), supplemented with a cocktail of growth factors, fetal bovine serum and antibiotics (FGMTM-2 SingleQuots™, LONZA). All cells were maintained in a humidified 5% C02 atmosphere at 37° C. and were passaged once they reached 80% confluence. All experiments were performed with cells in the logarithmic growth phase.
(§5) For toxicity studies, cells were seeded into 96-well or 24-well cell culture plates at 3,500 cells/cm2 and were used for experiments once they reached 80% confluence.
(§6) Cell toxicity and cell death was evaluated with the CellTox™ Green Cytotoxicity Assay (Promega). This assay measures changes in membrane integrity that occur as a result of cell death. The dye used in the system is excluded from viable cells but binds to DNA in compromised cells, which results in a fluorescent signal. We measured cell death in HUVEC and primary fibroblasts treated with antifibrinolytic agents at 4 concentrations (as indicated above) with triplicates per concentration in 24-well plates after 24 hours of exposure. Hoechst (Thermo Fisher Scientific) was used to stain all nuclei. Images of cells were captured using an inverted microscope (Nicon; Edipse T2000 TE). Green fluorescent cells (FITC filter) and Hoechst stained cells (DAPI filter) were counted using Image J software.

[11] = tested on: HUVEC; conditions: 24 hours; 30 μM KD1TM, 30 μM BPTI, 60 mM EACA, 30 mM TXA
From the text: as §4, §5, §6

Row | Substance | Reduction of blood loss [1] | half-life [2] | half-life [3] | Ki [4] | Ki [5] | HUVEC viability (FIG. 4) [6] | Apoptosis, caspase-3/7 activity, HUVEC (FIG. 6) [7] | Fibroblast cell viability (FIG. 5) [8] | Ki [9] | Fibroblasts cytotoxicity, CellTox green (FIG. 8) [10] | HUVEC cytotoxicity, CellTox green (FIG. 7) [11]
1 | Textilinin-1 [Q8008] | as effective as aprotinin in reducing blood loss | – | – | – | – | – | – | – | – | – | –
2 | aprotinin | – | ~1.17 h | ~2 h | > 3000 nM | > 3000 nM | not significantly different from the untreated cells | did not induce apoptosis | not significantly different from the untreated cells | 0.5 ± 0.1 nM | did not induce toxicity | did not induce toxicity
